# Laboratory results reported in the supplement of paper PMC7125110.
# ± gives the standard error. For some assays here: This sample holds only a part of the variants without activity.
# B1: glmS ribozyme (parent)
# chain: AUAAAAGCGCCAGAACUACAGAAAUGUAGUUGACGAGGAGGAGGUUUAUCGAAUUUUCGGCGGAUGCCUCCAAA
# What was measured:
# Conditions in all cases: with glucosamine-6-phosphate
# glucosamine-6-phosphate [1] = variants of: B1; experiment: kcat; higher = faster cleavage; RNA array
# In short: (§1)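 Glucosamine-6-phosphate (40 μM to 10 mM) in HEPES/KCl/Mg(OAc)2 buffer was flowed over sequenced MiSeq chips, and tiles were imaged over ~14 h. Barcoded ribozyme variants there had been transcribed in situ by E. coli RNA polymerase and were tracked through a hybridised Cy3 probe at 37 °C. One- or two-exponential decay fits to per-tile medians, normalised to baseline and to non-cleaving reference variants, gave kobs. kcat and KM came from weighted Michaelis–Menten fits across concentrations.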
# glucosamine-6-phosphate [2] = variants of: B1; experiment: self-cleavage kobs at 40 uM GlcN6P; higher = faster cleavage; RNA array
# In short: as §1
# glucosamine-6-phosphate [3] = variants of: B1; experiment: self-cleavage kobs at 640 uM GlcN6P; higher = faster cleavage; RNA array
# In short: as §1
# glucosamine-6-phosphate [4] = variants of: B1; experiment: self-cleavage kobs at 10000 uM GlcN6P; higher = faster cleavage; RNA array
# In short: as §1
# glucosamine-6-phosphate [5] = variants of: B1; experiment: KM; higher = weaker cofactor use; RNA array
# In short: as §1
# glucosamine-6-phosphate [6] = variants of: B1; experiment: self-cleavage kobs at 160 uM GlcN6P; higher = faster cleavage; RNA array
# In short: as §1
# glucosamine-6-phosphate [7] = variants of: B1; experiment: self-cleavage kobs at 2500 uM GlcN6P; higher = faster cleavage; RNA array
# In short: as §1
Variant,kcat (glucosamine-6-phosphate [1]),self-cleavage kobs at 40 uM GlcN6P (glucosamine-6-phosphate [2]),self-cleavage kobs at 640 uM GlcN6P (glucosamine-6-phosphate [3]),self-cleavage kobs at 10000 uM GlcN6P (glucosamine-6-phosphate [4]),KM (glucosamine-6-phosphate [5]),self-cleavage kobs at 160 uM GlcN6P (glucosamine-6-phosphate [6]),self-cleavage kobs at 2500 uM GlcN6P (glucosamine-6-phosphate [7])
U54C C61U,2.59e-05 ± 2.6e-06 s⁻¹,,,,,,
U31A A42G U47A,0.00933 ± 0.0047 s⁻¹,0.000345 ± 9.2e-05 s⁻¹,0.00346 ± 0.001 s⁻¹,0.00844 ± 0.0039 s⁻¹,,,
G13C A14G,0.00129 ± 0.00022 s⁻¹,,0.000189 ± 2.5e-05 s⁻¹,0.000855 ± 0.00013 s⁻¹,3.98 ± 0.95 mM,4.16e-05 ± 8.8e-06 s⁻¹,0.000557 ± 7.3e-05 s⁻¹
A14G U55C,0.0632 ± 0.029 s⁻¹,0.00179 ± 0.00021 s⁻¹,0.0382 ± 0.012 s⁻¹,0.0522 ± 0.015 s⁻¹,,0.00449 ± 0.00098 s⁻¹,
C10G A39G,< 1e-05 s⁻¹,,,,,< 1e-05 s⁻¹,
U47C C50A,3.31e-05 ± 5.7e-06 s⁻¹,,,,3.09 ± 1.5 mM,,
A15U A64U,1.4e-05 ± 4.2e-06 s⁻¹,< 1e-05 s⁻¹,,,,< 1e-05 s⁻¹,
A15C G32C,0.000182 ± 5.4e-06 s⁻¹,,3.08e-05 ± 1e-05 s⁻¹,0.000138 ± 1.7e-05 s⁻¹,3.3 ± 0.24 mM,,7.51e-05 ± 2e-05 s⁻¹
A53C G59U,< 1e-05 s⁻¹,,,,,,
G40C U69C,7.37e-05 ± 2.1e-05 s⁻¹,,,5.63e-05 ± 1.4e-05 s⁻¹,,,5.5e-05 ± 1.1e-05 s⁻¹
G9U A33U,< 1e-05 s⁻¹,,< 1e-05 s⁻¹,< 1e-05 s⁻¹,,< 1e-05 s⁻¹,
A12C A23C U54G C70A,0.00013 ± 1.8e-05 s⁻¹,8.19e-05 ± 2.8e-05 s⁻¹,0.000146 ± 2.1e-05 s⁻¹,0.000154 ± 2.8e-05 s⁻¹,,,0.000103 ± 1.9e-05 s⁻¹
A15C C71U,0.00455 ± 0.0014 s⁻¹,0.000165 ± 1.6e-05 s⁻¹,0.00111 ± 0.00013 s⁻¹,0.00453 ± 0.00056 s⁻¹,1.58 ± 0.69 mM,0.000358 ± 4.6e-05 s⁻¹,0.00266 ± 0.00039 s⁻¹
U65G C67U,0.00306 ± 0.00057 s⁻¹,3.92e-05 ± 7.9e-06 s⁻¹,0.000459 ± 5.7e-05 s⁻¹,0.00248 ± 0.00025 s⁻¹,3.59 ± 0.95 mM,0.000142 ± 1.8e-05 s⁻¹,0.00101 ± 0.00014 s⁻¹
A33U U69C,7.22e-05 ± 1.2e-06 s⁻¹,,,6.49e-05 ± 9.5e-06 s⁻¹,1.08 ± 0.092 mM,,5.12e-05 ± 1.2e-05 s⁻¹
U31G A48U U55G A64G,0.000666 ± 0.00016 s⁻¹,,0.0001 ± 2.9e-05 s⁻¹,0.000484 ± 9.1e-05 s⁻¹,3.2 ± 1.5 mM,,0.000437 ± 0.00013 s⁻¹
U46C U56G,0.00195 ± 0.00027 s⁻¹,5.6e-05 ± 9.5e-06 s⁻¹,0.000736 ± 8.1e-05 s⁻¹,0.00164 ± 0.00018 s⁻¹,1.39 ± 0.31 mM,0.000159 ± 3e-05 s⁻¹,0.00128 ± 0.00017 s⁻¹
